B1: library; numbered along this chain (parent)
chain: MRKPRAAVGSGHRKQAASQEGRQKHAKNNSQAKPSACDGLARQPEEVVLQASVSSYHLFRDVAEVTAFRGSLLSWYDQEKRDLPWRRRAEDEMDLDRRAYAVWVSEVMLQQTQVATVINYYTGWMQKWPTLQDLASASLEEVNQLWAGLGYYSRGRRLQEGARKVVEELGGHMPRTAETLQQLLPGVGRYTAGAIASIAFGQATGVVDGNVARVLCRVRAIGADPSSTLVSQQLWGLAQQLVDPARPGDFNQAAMELGATVCTPQRPLCSQCPVESLCRARQRVEQEQLLASGSLSGSPDVEECAPNTGQCHLCLPPSEPWDQTLGVVNFPRKASRKPPREESSATCVLEQPGALGAQILLVQRPNSGLLAGLWEFPSVTWEPSEQLQRKALLQELQRWAGPLPATHLRHLGEVVHTFSHIKLTYQVYGLALEGQTPVTTVPPGARWLTQEEFHTAAVSTAMKKVFRVYQGQQPGTCMGSKRSQVSSPCSRKKPRMGQQVLDNFFRSHISTDAHSLNSAAQ

Variants of: B1
Test: 8OG:A repair function score (normalized; synonymous = 0, nonsense = -1) (normalized log-likelihood score); higher = more repair activity (WT-like)
Conditions: with 8OG:A DNA repair reporter (GFP) in HEK-293 MUTYH KO cells
Procedure, shortened: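 With 10 pg/ml doxycycline, MUTYH knockout HEK-293 cells carrying lentiviral MUTYH cDNA NNN codon-scan libraries were co-transfected with mCherry and an 8OG:A GFP repair reporter. Viable mCherry+ cells were sorted into GFP+ (repair) and GFP− bins at 72 h, three replicates per tile, and tile amplicons were sequenced. Per-tile Rosace fitness scores were then normalized into a repair function score anchored on synonymous and nonsense distributions. Medians were fixed at 0 for synonymous and -1 for nonsense, excluding variants under 300 counts per million at the start.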

8OG:A repair function score, by site and new letter:
H420: I -0.666 | S -0.494 | P -0.877 | D -0.651 | W -0.434 | K -0.792 | A -0.146 | T -0.525 | E -0.781 | R -0.393 | M -0.23 | Y -0.672 | N -0.608 | F -0.576 | L -0.527 | G -0.0793 | Q -0.0915 | C -0.465 | V -0.371
L411: P -0.665 | S -0.29 | A -0.00099 | I 0.148 | W -0.28 | C 0.0617 | N -0.503 | V 0.0699 | Y 0.251 | T -0.469 | F -0.151 | K -0.505 | M -0.193 | H 0.0947 | E -0.473 | G -0.531 | Q -0.494 | R -0.222 | D -0.751
G412: N -0.34 | M -0.67 | P -0.295 | E -0.631 | I -0.788 | S -0.26 | D -0.162 | K -0.396 | T -0.494 | F -0.473 | R -0.598 | V -0.894 | Y -0.721 | W -0.986 | Q -0.645 | A -0.236 | L -0.855 | H -0.792 | C -0.809
L408: W -0.833 | Y -0.205 | V -0.347
Q426: A -0.0345 | G -0.158 | D -0.46 | F -0.17 | H -0.0882 | E -0.28 | C -0.0839 | I -0.057
K422: C -0.221 | W -0.317 | L -0.353 | V -0.231 | P -1.09 | F -0.584 | A -0.0566 | M -0.42 | E -0.492 | T -0.156 | R 0.334 | H -0.22 | S -0.227 | Y -0.355 | G -0.491 | N -0.21 | I -0.297 | D -0.458 | Q 0.195
T417: H -0.254 | K 0.36 | Q -0.0624 | V 0.0389 | N 0.149 | F 0.0432 | C -0.188 | L -0.0186 | I -0.142 | P -0.506 | S 0.0785 | A 0.198 | M 0.321 | Y 0.325 | G -0.208 | W -0.253 | E 0.0158 | D -0.0817 | R 0.199
I421: D -0.852 | R -0.207 | H -0.201 | S -0.59 | N -0.83 | A -0.443 | T -0.299 | C -0.3 | W -0.59 | Y -0.435 | P -1.15 | E -0.385 | V -0.0973 | L 0.0792 | K -0.173 | F -0.142 | G -0.609 | M -0.139 | Q -0.51
V415: F -0.391 | C 0.022 | K -0.327 | Y -0.275 | H -0.115 | D -0.364 | P -0.0885 | A 0.0175 | R 0.157 | M 0.0821 | I 0.053 | L 0.0523 | N -0.11 | W 0.0208 | S 0.0289 | T -0.106 | G -0.172 | Q 0.189 | E -0.106
S419: Q -0.333 | K 0.0315 | G -0.522 | N -0.269 | D -0.221 | R -0.334 | V -0.259 | A -0.188 | W -0.75 | Y -0.503 | L -0.749 | H -0.28 | P -0.574 | E -0.583 | M -0.561 | T -0.177 | F -0.753 | I -0.542 | C -0.434
R409: Y -0.0918 | F -0.167 | T 0.31 | E 0.0558 | M -0.242 | L 0.0499 | V 0.0575 | K -0.145 | I -0.183 | A -0.0367 | D -0.0632 | Q -0.332 | N -0.0513 | H -0.288 | W 0.0733 | S 0.0978 | P -0.541 | G -0.342 | C -0.178
H416: F -0.448 | Q 0.399 | Y -0.438 | C -0.483 | R -0.158 | G -0.0614 | I -0.188 | K -0.715 | E -0.909 | P -0.576 | S -0.0543 | V -0.101 | A -0.0865 | N -0.342 | W -0.209 | M -0.755 | T 0.0616 | L -0.319 | D -0.403
L423: F -0.0863 | T -0.513 | P -0.683 | S 0.137 | M 0.142 | Q 0.416 | E -0.289 | Y -0.0686 | V -0.132 | K -0.269 | W -0.0181 | R -0.232 | G 0.0807 | H 0.0797 | D -0.261 | A 0.0643 | C 0.0721 | I -0.059 | N -0.091
F418: M 0.07 | Q -0.554 | G -0.636 | I 0.255 | A -0.333 | N -0.355 | T -0.165 | V -0.269 | C -0.171 | R -0.722 | W -0.969 | L -0.304 | S -0.474 | P -0.719 | H -0.4 | K -0.75 | D -1.06 | E -0.889 | Y -0.368
H410: N -0.157 | S -0.169 | L -0.3 | Y 0.174 | I -0.161 | P -0.371 | G -0.298 | V -0.2 | W -0.367 | F 0.096 | M 0.0995 | T -0.322 | C -0.293 | K -0.0723 | R 0.0868 | A -0.29 | Q -0.291 | D -0.324 | E -0.292
E413: N -0.0589 | C -0.201 | I 0.00451 | A -0.0523 | M -0.375 | L -0.056 | R -0.0915 | Q -0.0587 | S 0.169 | K 0.103 | G -0.112 | P -0.386 | F 0.0141 | Y -0.109 | V -0.059 | W -0.379 | D -0.00314 | H 0.00964 | T 0.369
T424: Y -0.181 | M -0.383 | P -0.685 | S -0.192 | W -0.204 | Q -0.355 | F -0.0268 | R -0.0759 | V -0.09 | H -0.235 | D -0.256 | G -0.293 | E -0.45 | L -0.165 | K -0.203 | N -0.156 | A -0.121 | C -0.0623 | I 0.0389
V414: N -0.679 | A -0.157 | M -0.321 | D -0.769 | Y -0.314 | R -0.625 | I -0.137 | E -0.742 | G -0.649 | F -0.187 | T -0.0984 | C 0.129 | H -0.326 | S -0.294 | P -1.01 | L -0.0973 | K -0.609 | W -0.504 | Q -0.321
Y425: A -0.637 | L -0.213 | S -0.31 | Q -0.626 | I 0.315 | T -0.255 | D -0.805 | W -0.328 | C -0.509 | N -0.608 | V 0.00816 | R -0.476 | G -0.907 | F -0.11 | K -0.0804 | M 0.236 | E -0.544 | P -0.934 | H -0.0609

From the supplement of paper PMC11908140
